Laboratory results taken from article PMC3577887, “Multiple Consequences of a Single Amino Acid Pathogenic RTK Mutation: The A391E Mutation in FGFR3” (PLoS ONE, 2013).

Target: the molecule itself
Experiment: cross-linking; 2 mM BS3 (membrane-impermeable) on starved HEK 293 T cells transfected with 1 µg DNA, room temperature, no ligand; Western blot with anti-FGFR3; cross-linked fraction SD/(SM+SD) with the 130 kDa monomer band

B1: FGFR3 carrying the A391E mutation (Crouzon syndrome with Acanthosis Nigricans) (receptor)
chain: ESLGTEQRVVGRAAEVPGPEPGQQEQLVFGSGDAVELSCPPPGGGPMGPTVWVKDGTGLVPSERVLVGPQRLQVLNASHEDSGAYSCRQRLTQRVLCHFSVRVTDAPSSGDDEDGEDEAEDTGVDTGAPYWTRPERMDKKLLAVPAANTVRFRCPAAGNPTPSISWLKNGREFRGEHRIGGIKLRHQQWSLVMESVVPSDRGNYTCVVENKFGSIRQTYTLDVLERSPHRPILQAGLPANQTAVLGSDVEFHCKVYSDAQPHIQWLKHVEVNGSKVGPDGTPYVTVLKTAGANTTDKELEVLSLHNVTFEDAGEYTCLAGNSIGFSHHSAWLVVLPAEEELVEADEAGSVYAGILSYGVGFFLFILVVEAVTLCRLRSPPKKGLGSPTVHKISRFPLKRQVSLESNASMSSNTPLVRIARLSSGEGPTLANVSELELPADPKWELSRARLTLGKPLGEGCFGQVVMAEAIGIDKDRAAKPVTVAVKMLKDDATDKDLSDLVSEMEMMKMIGKHKNIINLLGACTQGGPLYVLVEYAAKGNLREFLRARRPPGLDYSFDTCKPPEEQLTFKDLVSCAYQVARGMEYLASQKCIHRDLAARNVLVTEDNVMKIADFGLARDVHNLDYYKKTTNGRLPVKWMAPEALFDRVYTHQSDVWSFGVLLWEIFTLGGSPYPGIPVEELFKLLKEGHRMDKPANCTHDLYMIMRECWHAAPSQRPTFKQLVEDLDRVLTVTSTDEYLDLSAPFEQYSPGGQDTPSSSSSGDDSVFAHDLLPPAPPSSGGSRT
notes: fibroblast growth factor receptor 3, human, with the pathogenic transmembrane-domain mutation A391E; full-length receptor; the mature 130 kDa form in the plasma membrane was quantified; Made from the FGFR3/WT plasmid by site-directed mutagenesis; the mutation occurs in patients; also called FGFR3/A391E; A391E mutant; source: HEK 293 T, transiently transfected (pcDNA 3.1+, Fugene 6), on cells
stoichiometry N: 2
